# Results from patent US11180767B2, “Protease deficient filamentous fungal cells and methods of use thereof” (GLYKOS FINLAND OY, priority 2012, dated 2021).
# Assays:
# [1] = test system: proteases in supernatant from the 6-fold protease deletion strain M400; assay: Protease stability of proteins spiked into supernatant of the 6-fold protease deletion strain; type: biochemical, Trichoderma reesei; conditions: pepstatin A 50 μM; SBTI 0.2 mg/ml; pH 4.2, 20 hours, 37°C
# Protocol: The protease stability of the model proteins IGF1, hGH, and IFNα2b were analyzed by spiking them into supernatant from the 6-fold protease deletion strain (Δpep1Δtsp1Δslp1Δgap1Δgap2Δpep4) M400. The supernatant was collected from a large shake flask culture CAH15. The undiluted supernatant from the shake flask cultivation CAH15 was incubated with the purified model proteins with and without pepstatin A (50 μM) and SBTI (0.2 mg/ml) inhibitors for 20 hours at 37° C. The 5 day culture supernatant pH was around 4.2. The reaction containing 0.05 μg μl of model protein was sampled after 20 hours. 50 mM sodium citrate pH 4.0 spiked with model proteins (0.05 g 1) was used as a buffer control.
# From each reaction 10 μl was loaded into an 18% SDS PAGE gel and run for 30 minutes at 200 V. The proteins in the gel were then transferred to nitrocellulose for immunoblotting. The nitrocellulose membrane was blocked for 1 hour at room temperature with 5% milk in TBST buffer. The individual blots were probed with their specific primary antibody to detect the appropriate model protein for 1 hour at room temperature on a shaker. The mouse anti-IGF1 antibody (R&D systems #mab291) was used at 2 μg/ml diluted in TBST. The mouse anti-rhGH antibody (Abeam #ab51232) was used at 2 μg/ml diluted in TBST. The mouse anti-IFNα2b antibody (Abeam #ab9386) was used at 1 μg/ml diluted in TBST. […]
# [2] = test system: rituximab antibody producing strain; assay: Treatment of T. reesei rituximab cultures with inhibitors; type: cell-based, Trichoderma reesei
# Protocol: The effectiveness of the inhibitors was also tested with the rituximab antibody producing strain, which contains a VALEKR linker sequence and the pep1 deletion. This strain was grown in triplicate, in small flasks both in presence or absence of chymostatin, SBTI, or pepstatin A. The small shake flasks contained 50 ml of TrMM plus lactose (40 g/l), spent grain extract (20 g/l), and buffer with 100 mM PIPPS at pH 5.5. The SBTI inhibitor was added to the culture at final concentrations of either 100 μg/ml or 500 μg/ml. Chymostatin was used at 100 μM, and pepstatin A was used at 10 μM. Each of the three inhibitors was added to the cultures daily on day 2, 3, 4, and 5.
# Growth of the cultures was followed daily by pH from day 2 until day 7. […] In the PIPPS buffered cultures, the pH decreased from an initial pH of 5.5 down to a pH of 4.8 after day 6. With chymostatin and pepstatin A the cultures were monitored up to day 7. On day 7 the average pH for the control bottles was 4.6, while the average pH for chymostatin treated cultures was 4.9, and the average pH of pepstatin A treated cultures was 5.0.
# Culture supernatant samples (30 μl) were also collected on days 3, 4, and 5 for analysis of antibody production. The analysis was performed by immunoblots using an anti-IgG heavy chain antibody AP conjugate (Sigma #A3188) and an anti-light chain antibody AP conjugate (Sigma #A3812). Each antibody was diluted 1:30,000 in TBST. The full length rituximab heavy chain is about 51 kD, the rituximab light chain CHBI fusion is about 100 kD, and the free rituximab light chain is about 28 kD.
# [3] = test system: M369 human growth hormone strain; assay: hGH production in 24 well cultures with inhibitors and supplements; type: cell-based, Trichoderma reesei; conditions: 24 well culture, pH 4.5, day 4 immunoblot
# Protocol: To evaluate what inhibitors would best stabilize production of hGH, 24 well cultures of these strains were performed. The M369 human growth hormone strain (Δpep1Δtsp1Δslp1Δgap1Δgap2) was grown along with single components or with combinations of the following: trypsin and subtilisin inhibitor SBTI, the acidic protease inhibitor peptide SIP, the acidic protease inhibitor peptide LIP, the aspartic protease inhibitor pepstatin A free peptide, pepstatin A immobilized to agarose beads, the trypsin and subtilisin inhibitor BBI from lima bean, the […] chymostatin, and BSA. Three independent wells were chosen for control wells where no inhibitors or supplements were added. These two strains were grown in 3 ml of TrMM with diammonium citrate without ammonium sulfate, 100 mM PIPPS, 20 g/L spent grain extract, 40 g/L lactose adjusted to pH 4.5. The 24 well plates were shaken at 800 rpm, 85% humidity, and 28° C. The cultures were grown for 6 days and covered with an air permeable membrane.
# Inhibitors were added first on day 1 and then daily beginning on day 3. 100 μl samples were taken from the culture wells beginning on day 3. The mycelium was spun down for 5 minutes at 13 k and the supernatant collected. […]
molecule,measurement,setting,value
"SBTI: soybean trypsin inhibitor, trypsin and subtilisin inhibitor (protein) DFVLDNEGNPLENGGTYYILSDITAFGGIRAAPTGNERCPLTVVQSRNELDKGIGTIISSPYRIRFIAEGHPLSLKFDSFAVIMLCVGIPTEWSVVEDLPEGPAVKIGENKDAMDGWFRLERVSDDEFNNYKLVFCPQQAEDDKCGDIGISIDHDDGTRRLVVSKNKPLVVQFQKLDKESL","stabilisation of hGH, IFNα2b and IGF1 in supernatant",[1],only a small benefit for product stability
same,effect on culture growth (followed by pH),[2],no significant differences in the pH
same,rituximab light chain production vs untreated cultures,[2]; SBTI 100 or 500 μg/ml,minor improvement
same,rituximab heavy chain production vs untreated cultures,"[2]; day 5, SBTI 100 or 500 μg/ml, chymostatin 100 μM",several fold higher
same,effect on hGH production,[3],improved production
